Assays:
[1] = biological target: SDE-BBLF1-Flag (Epstein-Barr virus)
[2] = biological target: BBLF1-Flag (Epstein-Barr virus)

B1: BGLF2-GFP (natural protein)
chain: MASAANSSREQLRKFLNKECLWVLSDASTPQMKVYTATTAVSAVYVPQIAGPPKTYMNVTLIVLKPKKKPTYVTVYINGTLATVARPEVLFTKAVQGPHSLTLMYFGVFSDAVGEAVPVEIRGNPVVTCTDLTTAHVFTTSTAVKTVEELQDITPSEIIPLGRGGAWYAEGALYMFFVNMDMLMCCPNMPTFPSLTHFINLLTRCDNGECVTCYGAGAHVNILRGWTEDDSPGTSGTCPCLLPCTALNNDYVPITGHRALLGLMFKPEDAPFVVGLRFNPPKMHPDMSRVLQGVLANGKEVPCTAQPWTLLRFSDLYSRAMLYNCQVLKRQVLHSY
recruitment of BGLF2-GFP to the TGN (colocalisation with TGN46) in cotransfected A7 cells, confocal microscopy (% of transfected cells) [1]: 70
recruitment of BGLF2-GFP to the TGN (colocalisation with TGN46) in cotransfected A7 cells, confocal microscopy (% of transfected cells) [2]: 70

Reference: paper PMC6993569
